From patent US20220184120A1 (MINERVA BIOTECHNOLOGIES, published 2022)
Residue numbers refer to the chain shown, from its start.

T1: PSMGFR peptide (Primary Sequence of the MUC1 Growth Factor Receptor)
T1 construct: synthetic peptide immobilised on ELISA plates; also called MUC1* peptide; MUC1* extra cellular domain peptide
T1 peptide: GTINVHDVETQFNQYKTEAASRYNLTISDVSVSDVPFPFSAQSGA

T2: C-10 peptide (PSMGFR minus 10 amino acids from the C-terminus)
T2 construct: also called C-10 PSMGFR; PSMGFR C-10
T2 peptide: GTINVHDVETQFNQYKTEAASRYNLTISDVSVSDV

T3: N+9/C-9 peptide (9 amino acids added onto the N-terminus and 9 deleted from the C-terminus of PSMGFR)
T3 peptide: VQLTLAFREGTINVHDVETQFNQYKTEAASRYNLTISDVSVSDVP

T4: N+20/C-27 peptide (20 amino acids added onto the N-terminus and 27 deleted from the C-terminus of PSMGFR)
T4 peptide: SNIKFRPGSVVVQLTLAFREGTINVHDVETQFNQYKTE

T5: N-19/C-5 peptide
T5 peptide: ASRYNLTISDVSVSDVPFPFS

T6: N-19 peptide
T6 peptide: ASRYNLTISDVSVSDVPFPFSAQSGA

T7: N-26 peptide
T7 peptide: ISDVSVSDVPFPFSAQSGA

T8: N-30 peptide
T8 peptide: SVSDVPFPFSAQSGA

T9: N-10/C-5 peptide
T9 peptide: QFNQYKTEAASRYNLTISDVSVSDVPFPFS

T10: NME7-AB (recombinant) (Homo sapiens (Human), UniProt Q9Y5B8 92-376)
T10 construct: the entry ends in a His tag; also called NM23-H7
T10 sequence: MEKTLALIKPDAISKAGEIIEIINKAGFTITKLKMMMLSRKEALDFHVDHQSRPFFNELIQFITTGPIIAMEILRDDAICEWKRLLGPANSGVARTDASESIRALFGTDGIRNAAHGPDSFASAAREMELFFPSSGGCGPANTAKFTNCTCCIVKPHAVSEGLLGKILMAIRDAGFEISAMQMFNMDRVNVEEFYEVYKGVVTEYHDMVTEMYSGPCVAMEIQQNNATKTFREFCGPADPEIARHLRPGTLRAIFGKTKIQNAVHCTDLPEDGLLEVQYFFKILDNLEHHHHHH

B1: 20A10 mouse monoclonal antibody (antibody, V domains shown)
VH: EVMLVESGGGLVKPGGSLKLSCAASGFTFSTYAMSWIRQTPEKRLEWVASIGRAGSTYYSDSVKGRFTISRDNVRNILYLQMSSLRSEDTAMYYCARGPIYNDYDEFAYWGQGTLVTVSA
VL: NIMMTQSPSSLAVSAGEKVTMSCKSSQSVLYSSNQKNYLAWYQQKPGQSPKLLIYWASTRESGVPDRFTGSGSGTDFTLTISSVQAEDLAVYYCHQYLSSLTFGAGTKLELK
notes: raised against PSMGFR; also called MN-20A10; anti-PSMGFR antibody 20A10
B2: MN-C3 mouse monoclonal anti-MUC1* antibody (antibody, V domains shown)
VH: QVQLQQSGPELVRPGVSVKISCKGSGYRFTDYAMNWVKQSHAKSLEWIGVISTFSGNTNFNQKFKGKATMTVDKSSSTAYMELARLTSEDSAMYYCARSDYYGPYFDYWGQGTTLTVSS
VL: DVLMTQTPLSLPVSLGDQASISCRSSQTIVHSNGNTYLEWYLQKPGQSPKLLIYKVSNRFSGVPDRFSGSGSGTDFTLKINRVEAEDLGVYYCFQGSHVPFTFGSGTKLEIK
notes: mouse monoclonal raised against PSMGFR; also called Min-C3
B3: 17H6 mouse monoclonal antibody (antibody, V domains shown)
VH: EVKLVESGGGLVQPGGSLRLSCATSGFTFTDYYMSWVRQPPRKALEWLGFIRNKANGYTAEYSASVKGRFTISRDVSQNLLYLQMNILRAEDSATYYCAKDYYGSNPAWFAYWGQGTLVTVSA
VL: B2 VL with V2I, T28S, N33S, Y37F, T74I, N81S
notes: raised against N+9/C-9; also called N+9/C-9 antibody 17H6
B4: 39H5 mouse monoclonal antibody (antibody, V domains shown)
VH: QIQLVQSGPELKKPGETVKISCKASGYTFTNYGMNWVKQAPGKGLKWMGWINTYTGEPTYVGDFKGRFAFSLETSASTAYLQINNLKNEDTATYFCVRGIHGYVDYWGQGTTLTVSS
VL: B2 VL with T28S, S32R, N81S, V99L, F101W, S105G
notes: raised against N+9/C-9; also called N+9/C-9 antibody 39H5
B5: N-10 peptide (PSMGFR minus 10 amino acids from the N-terminus) (peptide)
peptide: QFNQYKTEAASRYNLTISDVSVSDVPFPFSAQSGA
notes: also called N-10 PSMGFR; PSMGFR N-10
B6: MN-C2 mouse monoclonal anti-MUC1* antibody (antibody, V domains shown)
VH: EVQLEESGGGLVKPGGSLKLSCAASGFTFSGYAMSWVRQTPEKRLEWVATISSGGTYIYYPDSVKGRFTISRDNAKNTLYLQMSSLRSEDTAMYYCARLGGDNYYEYFDVWGAGTTVTVSS
VL: DIVITQSTASLGVSLGQRATISCRASKSVSTSGYSYMHWYQQRPGQPPKLLIYLASNLESGVPARFSGSGSGTDFTLNIHPVEEEDAATYYCQHSRELPFTFGGGTKLEIKR
notes: mouse monoclonal raised against PSMGFR; also called Min-C2
B7: 3C5 mouse monoclonal antibody (antibody, V domains shown)
VH: QIQLVQSGPELKKPGETVKISCKASGYTFTNYGMNWVKQAPGKGLKWMGWINTYTGKPTYADDFKGRFAFSLETSASTAYLQINNLKNEDTATYFCARGGLDGYYGYWGQGTTLTVSS
VL: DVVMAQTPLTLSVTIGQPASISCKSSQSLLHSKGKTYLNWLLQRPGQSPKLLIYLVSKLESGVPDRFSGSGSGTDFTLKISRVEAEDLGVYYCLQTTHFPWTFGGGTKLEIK
notes: raised against N+9/C-9; also called N+9/C-9 antibody 3C5
B8: 1E4 mouse monoclonal antibody (antibody, V domains shown)
VH: QVQLQQSGAELVRPGSSVKISCKASGYAFSTYWMNWVKQRPGQGLEWIGQIYPGDSDTNYNGKFKGKATLTADKSSNTAYMQLSSLTSEDSAVFFCARGNHASMDYWGQGTSVTVSS
VL: DVVMTQTPLSLPVSLGDQASISCRSSQSLVHSNGNTYLHWYLQKPGQSPKLLIYKVSNRFSGVPDRFSGSGSGTDFTLKISRVEAEDLGVYFCSQKTHVPWTFGGGTKLEIK
notes: raised against N+20/C-27; also called MN-1E4; N+20/C-27 antibody 1E4
B9: 18B4 mouse monoclonal antibody (antibody, V domains shown)
VH: EVKLEESGGGLVQPGGSMKLSCAASGFTFNDAWMDWVRQSPEKGLEWVAEIRSTANIHTTYYAESVQGRFTISRDDSKSSVYLQMNSLRAEDTGIYYCTPLLYGFAYWGQGTLVTVSA
VL: B8 VL with T7S, S25T, Y41H, L51V, N58S, K96N, W101Y
notes: raised against PSMGFR; also called anti-PSMGFR antibody 18B4

Columns and labels:
[1] = molecular target: T1, PSMGFR peptide (Primary Sequence of the …); experiment: ELISA
[2] = molecular target: B5; experiment: ELISA
[3] = molecular target: T2, C-10 peptide (PSMGFR minus 10 amino …); experiment: ELISA (FIG. 64A)
[4] = molecular target: T3, N+9/C-9 peptide (9 amino acids added …); experiment: ELISA (FIG. 64A)
[5] = molecular target: T1, PSMGFR peptide (Primary Sequence of the …); experiment: ELISA (FIG. 9)
[6] = molecular target: T2, C-10 peptide (PSMGFR minus 10 amino …); experiment: ELISA (FIG. 2E)
Method: (§1) FIGS. 2A-2I show results of ELISA assays. MUC1* peptides PSMGFR, PSMGFR minus 10 amino acids from the N-terminus aka N−10, or PSMGFR minus 10 amino acids from the C-terminus, aka C−10 are immobilized on the plate and the following are assayed for binding: NME7-AB (FIG. 2A), MN-C2 monoclonal antibody (FIG. 2B), MN-E6 monoclonal antibody (FIG. 2C), or dimeric NME1 (FIG. 2D). […] MUC1* peptides PSMGFR minus 10 amino acids from the N-terminus aka N−10, or PSMGFR minus 10 amino acids from the C-terminus, aka C−10, are immobilized on the plate and the following are assayed for binding: MN-C3 (FIG. 2E) and MN-C8 (FIG. 2F).

[7] = molecular target: T4, N+20/C-27 peptide (20 amino acids added …); experiment: ELISA (FIG. 63)
Method: (§2) ELISA assays were performed to determine if, in addition to recognizing their immunizing peptide, they recognized PSMGFR, N−10 or C−10. In addition, they were tested for their ability to bind to N+20/C−27, N+9/C−9. We first did the ELISA assay on our set of reference antibodies, MNC2, MNE6, which we know are cancer-specific plus MNC3, which we know recognizes stem cells and progenitor cells (FIG. 63A-63B). None of the reference antibodies bound to the N+20/C−27 peptide. MNC2 and MNE6 cannot bind to PSMGFR peptides with 27, 10 or 9 C-terminal deletions, however, MNC3 binds to C−10 and to N+9/C−9 peptides.

[8] = molecular target: T3, N+9/C-9 peptide (9 amino acids added …); experiment: ELISA (FIG. 63)
Method: as §2

[9] = molecular target: B5; experiment: Table 4 criterion 1, Binds N-10
N-19/C-5 peptide = molecular target: T5, N-19/C-5 peptide; experiment: ELISA (FIG. 69)
Method: (§3) In order to further refine the epitopes to which each antibody binds, a series of smaller peptides derived from the PSMGFR sequence were synthesized: N−30 (SEQ ID NO:7), N−26 (SEQ ID NO:6), N−19 (SEQ ID NO:4), N−10/C−5 (SEQ ID NO:8), N−19/C−5 (SEQ ID NO:9). Each of the antibodies was tested in an ELISA assay for their ability to bind to this refined set of peptides, plus PSMGFR, N−10 and C−10 peptides (FIG. 67-69).

[10] = molecular target: B5; experiment: ELISA (FIG. 69)
Method: as §3

N-19 peptide = molecular target: T6, N-19 peptide; experiment: ELISA (FIG. 69)
Method: as §3

N-26 peptide = molecular target: T7, N-26 peptide; experiment: ELISA (FIG. 69)
Method: as §3

N-30 peptide = molecular target: T8, N-30 peptide; experiment: ELISA (FIG. 69)
Method: as §3

N-10/C-5 peptide = molecular target: T9, N-10/C-5 peptide; experiment: ELISA (FIG. 69)
Method: as §3

[11] = molecular target: T3, N+9/C-9 peptide (9 amino acids added …); experiment: ELISA
[12] = molecular target: T2, C-10 peptide (PSMGFR minus 10 amino …); experiment: ELISA (FIG. 69)
Method: as §3

NME7-AB (recombinant) = molecular target: T10, NME7-AB (recombinant); experiment: ELISA (FIG. 2A-2D)
Method: as §1

[13] = molecular target: T1, PSMGFR peptide (Primary Sequence of the …); experiment: ELISA (FIG. 2B)
[14] = molecular target: B5; experiment: ELISA (FIG. 2B-2C)
[15] = molecular target: T3, N+9/C-9 peptide (9 amino acids added …); experiment: ELISA (FIG. 66A)
[16] = molecular target: T2, C-10 peptide (PSMGFR minus 10 amino …); experiment: ELISA
[17] = molecular target: T1, PSMGFR peptide (Primary Sequence of the …); experiment: ELISA (FIG. 65)
[18] = molecular target: T4, N+20/C-27 peptide (20 amino acids added …); experiment: ELISA (FIG. 65A)
Excerpt: The antibodies being tested were derived from animals immunized with the N+20/C−27 peptide. The first selection criteria was to confirm that the antibodies bound to the immunizing N+20/C−27 peptide. […] Although these antibodies were raised against the N+20/C−27 peptide, all but one, 45C11, still bind to the PSMGFR peptide. […] 1E4 was able to bind to the N+20/C−27 peptide, the PSMGFR and the N−10 peptide, consistent with the idea that its epitope must lie within the […] sequence. […] The color of the bars for each antibody in the ELISA graph are color coded to match the deductive cognate sequence, or a portion thereof, of that antibody.
This same ELISA assay was performed on the antibodies of the invention (FIG. 64-66 and FIG. 201). Note that only 20A10 exactly matches the binding profile of MNC2 and MNE6. 25E6, 28F9 and 18G12 are all able to bind to the N−10 peptide. 18B4 is the only antibody raised against the PSMGFR peptide that requires the 10 most N-terminal amino acids of the peptide. The color of the bars for each antibody in the ELISA graph are color coded to match the deductive cognate sequence, or a portion thereof, of that antibody. In addition, another set of antibodies was assayed by ELISA (FIG. 201). Of this set, B12, B2, B7, B9, 8C7F3, and H11 bound to the PSMGFR peptide, bound to the N−10 peptide, but not to the C−10 peptide (FIG. 201).

[19] = molecular target: T4, N+20/C-27 peptide (20 amino acids added …); experiment: ELISA (FIG. 64A)

B1
binding result [1]: binds
binding result [2]: binds
binding result [3]: no binding
binding result [4]: no binding

B2
binding result [5]: binds
binding result [6]: binds
binding result [7]: no binding
binding result [8]: binds
binding result [9]: binds

B3
binding result (N-19/C-5 peptide): no binding
binding result [10]: no binding
binding result (N-19 peptide): no binding
binding result (N-26 peptide): no binding
binding result (N-30 peptide): no binding
binding result (N-10/C-5 peptide): no binding

B4
binding result [11]: binds
binding result (N-19/C-5 peptide): no binding
binding result [12]: no binding
binding result (N-19 peptide): no binding
binding result (N-26 peptide): no binding
binding result (N-30 peptide): no binding
binding result (N-10/C-5 peptide): no binding

B5
binding result (NME7-AB (recombinant)): binds

B6
binding result [13]: binds
binding result [7]: no binding
binding result [3]: no binding
binding result [4]: no binding
binding result [14]: binds

B7
binding result [2]: no binding
binding result [15]: binds

B8
binding result [2]: binds
binding result [16]: binds
binding result [17]: binds
binding result [18]: binds

B9
binding result [1]: binds
binding result [2]: no binding
binding result [16]: binds
binding result [19]: binds
binding result [4]: binds
